Patent publication US20200392225A1 (Novartis, published 2020)

T1: human NPR1 expressed on CHO-K1 cells (human, UniProt P16066 33-1061)
T1 sequence: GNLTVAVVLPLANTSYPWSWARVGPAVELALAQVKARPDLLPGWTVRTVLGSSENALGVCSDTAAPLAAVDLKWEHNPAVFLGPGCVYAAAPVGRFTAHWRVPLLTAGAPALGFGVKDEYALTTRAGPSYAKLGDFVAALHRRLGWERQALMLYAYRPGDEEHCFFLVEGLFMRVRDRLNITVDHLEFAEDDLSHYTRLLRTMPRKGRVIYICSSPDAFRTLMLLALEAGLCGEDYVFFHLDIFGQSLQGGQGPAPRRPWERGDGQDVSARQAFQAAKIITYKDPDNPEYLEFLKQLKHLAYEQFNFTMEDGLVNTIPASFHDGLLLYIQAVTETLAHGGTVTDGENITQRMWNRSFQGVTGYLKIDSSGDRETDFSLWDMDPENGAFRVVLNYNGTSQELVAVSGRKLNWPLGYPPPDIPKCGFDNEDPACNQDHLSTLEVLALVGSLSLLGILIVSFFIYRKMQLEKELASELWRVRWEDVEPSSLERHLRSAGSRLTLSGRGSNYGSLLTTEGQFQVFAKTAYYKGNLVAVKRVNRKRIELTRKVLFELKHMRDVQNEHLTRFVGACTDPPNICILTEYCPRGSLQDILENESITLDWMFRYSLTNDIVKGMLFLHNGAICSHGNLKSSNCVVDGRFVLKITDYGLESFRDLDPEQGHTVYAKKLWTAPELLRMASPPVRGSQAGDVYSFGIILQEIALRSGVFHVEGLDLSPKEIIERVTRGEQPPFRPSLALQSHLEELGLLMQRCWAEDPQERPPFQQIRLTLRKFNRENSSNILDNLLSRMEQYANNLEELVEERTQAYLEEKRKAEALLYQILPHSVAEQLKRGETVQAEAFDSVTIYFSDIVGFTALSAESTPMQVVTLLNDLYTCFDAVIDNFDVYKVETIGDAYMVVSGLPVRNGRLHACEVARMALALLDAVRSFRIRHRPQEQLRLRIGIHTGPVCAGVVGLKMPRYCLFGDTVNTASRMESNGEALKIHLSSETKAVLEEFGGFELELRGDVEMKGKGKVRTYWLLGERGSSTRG


Legend:
[1] = biological target: T1, human NPR1 expressed on CHO-K1 cells; test: cell-based or functional assay
[2] = biological target: T1, human NPR1 expressed on CHO-K1 cells; test: cell-based or functional assay; remark: listed apart in the source

Row | Binder | cGMP conc [nM] at 2 uM FabCys, +0.075 nM ANP [1] [nM] | cGMP conc [nM] at 2 uM FabCys, without ANP [1] [nM] | cGMP conc [nM] at 1 uM FabCys, +0.075 nM ANP [2] [nM] | cGMP conc [nM] at 1 uM FabCys, without ANP [2] [nM]
1 | WW03 FabCys (Fab, V domains shown) VH: QVQLLESGGGLVQPGGSLRLSCAASGFTFSSYWMNWVRQAPGKGLEWVSAISSDGSYTYYADSVKGRFTISRDNSKNTLYLQMNSLRAEDTAVYYCARDRYSMIYSYGAGAFDYWGQGTLVTVSS VL: DIQMTQSPSSLSASVGDRVTITCRASQGISSYLAWYQQKPGKAPKLLIYTASTLQSGVPSRFSGSGSGTDFTLTISSLQPEDFATYYCMQSYEKPRTFGQGTKVEIK | 108 | 32 | – | –
2 | WW01 FabCys (Fab, V domains shown) VH: QVQLLESGGGLVQPGGSLRLSCAASGFTFNTHYIHWVRQAPGKGLEWVSSISGSGSNTYYADSVKGRFTISRDNSKNTLYLQMNSLRAEDTAVYYCARERGYVYYHMFDPWGQGTLVTVSS VL: DIVLTQSPATLSLSPGERATLSCRASQSITRNYLAWYQQKPGQAPRLLIYGASSRATGIPARFSGSGSGTDFTLTISSLEPEDFAVYYCQQHSMYPRTFGQGTKVEIK | 121 | 30 | – | –
3 | YY06 FabCys (Fab, V domains shown) VH: EVQLLESGGGLVQPGGSLRLSCAASGFTFSSYAISWVRQAPGKGLEWVSAISGSGGSTYYAESVKGRFTISRDNSKNTLYLQMNSLRAEDTAVYYCARPYLGDRRSYGFDHWGQGTLVTVSS VL: QSALTQPASVSGSPGQSITISCTGTSSDVGSYNLVSWYQQHPGKAPKLMIYEGSKRPSGVSNRFSGSKSGNTASLTISGLQAEDEADYYCSSYGFHIVVVVFGGGTKLTVL | – | – | 75 | 20
4 | YY07 FabCys (Fab, V domains shown) VH: EVQLVQSGAEVKKPGESLKISCKGSGYSFTSYWISWVRQMPGKGLEWMGIIYPGTSYTRYSPSFQGQVTISADKSISTAYLQWSSLKASDTAMYYCARGSLPGLLGFDHWGQGTLVTVSS VL: QSVLTQPPSVSGAPGQRVTISCTGSSSNIGAGYDVHWYQQLPGTAPKLLIYGNSNRPNGVPDRFSGSKSGTSASLAITGLQAEDEADYYCQSYDSPTSSSVFGGGTKLTVL | – | – | 88 | 77
5 | YY05 FabCys (Fab, V domains shown) VH: EVQLVQSGAEVKKPGESLKISCKGSGYSFTSYWISWVRQMPGKGLEWMGIIYPGTSYTRYSPSFQGQVTISADKSISTAYLQWSSLKASDTAMYYCARGAVAGQLGFDHWGQGTLVTVSS VL: QSVLTQPPSVSGAPGQRVTISCTGSSSNIGAGYDVHWYQQLPGTAPKLLIYGNSNRPSGVPDRFSGSKSGTSASLAITGLQAEDEADYYCQSYYTSSHGPVFGGGTKLTVL | – | – | 227 | 207
6 | WW06 FabCys (Fab, V domains shown) VH: QVQLVQSGAEVKKPGESLKISCKGSGYSFTSYWIAWVRQMPGKGLEWMGRIDPDNSYTRYSPSFQGQVTISADKSISTAYLQWSSLKASDTAMYYCARWLSPGYALGEQPAGMDHWGQGTLVTVSS VL: DIVLTQPPSVSGAPGQRVTISCTGSSSNIGAGYAVHWYQQLPGTAPKLLIYSNNKRPSGVPDRFSGSKSGTSASLAITGLQAEDEADYYCQSYDLQKSSRVFGGGTKLTVL | 251 | 281 | – | –
